Data on five molecules can be found in article PMC2832577 (Science (New York, N.Y.), 2008).

Data set [1] has as its target T1, LeuT (Aquifex aeolicus, UniProt O67854). As to the kind of experiment: X-ray crystal structure, anomalous difference Fourier. It counts as binding. The note with it: primary substrate site.
The subject of the next data set is CC(C)C[C@H](N)C(=O)O. As to the kind of experiment: purified protein. The note with it: transport.
For another data set, the system named is NCC(=O)O. In words: purified protein. To be noted: transport.
The subject of a further data set is CSCC[C@H](N)C(=O)O. As to the kind of experiment: purified protein. To be noted: transport.
For data set [2], the system named is N[C@@H](Cc1ccc(O)cc1)C(=O)O. In words: purified protein. To be noted: transport.
The target in data set [3] is T1, LeuT. In words: displacement of [3H]leucine binding. Background: Loss of bound radioactivity is the signal in a displacement assay; it reports binding, not function.
In data set [4] the target is T1, LeuT. In words: direct radioligand binding.

By Km is commonly meant the concentration of substrate that gives half-maximal velocity. As a reminder, the Vmax is the rate approached at saturating substrate. One may read the kcat as the maximal rate divided by the concentration of active sites. A word on the kcat/Km: it is the second-order rate constant that governs catalysis at low substrate concentration. As usually defined, the Ki is a dissociation constant, usually derived from enzyme kinetics or from competition with a known ligand. The term Kd denotes the concentration at which binding is half-saturated. A higher Kd goes with a looser complex.

Turning to `C[Se]CC[C@H](N)C(=O)O` [selenomethionine], the “X-ray crystal structure, anomalous difference Fourier” value at LeuT [1] is listed as “We also measured diffraction data on a LeuT-selenomethionine complex”.

LeuT (Aquifex aeolicus VF5): the Km in the data set with CC(C)C[C@H](N)C(=O)O worked out at 0.146 ± 0.025 µM; in the data set on NCC(=O)O, 1.91 ± 0.03 µM; in the data set on CSCC[C@H](N)C(=O)O it was 0.289 ± 0.027 µM; in data set [2], 2.83 ± 0.15 µM. Also, the Vmax was 0.000343 µmol/min/mg with CC(C)C[C@H](N)C(=O)O, 0.000444 µmol/min/mg in the data set on NCC(=O)O, 0.000523 µmol/min/mg in the data set with CSCC[C@H](N)C(=O)O and 0.000209 µmol/min/mg in data set [2]. The kcat with CC(C)C[C@H](N)C(=O)O was 0.000333 ± 5.56e-05 s⁻¹; with NCC(=O)O, 0.000439 ± 5.56e-05 s⁻¹; in the data set on CSCC[C@H](N)C(=O)O it was 0.000517 ± 1.11e-05 s⁻¹; in data set [2] it was 0.000206 ± 1.39e-05 s⁻¹. Also, the kcat/Km stood at 2280 M⁻¹ s⁻¹ with CC(C)C[C@H](N)C(=O)O, 222 M⁻¹ s⁻¹ with NCC(=O)O, 1780 M⁻¹ s⁻¹ in the data set on CSCC[C@H](N)C(=O)O and 83.3 M⁻¹ s⁻¹ in data set [2].

Regarding `NCC(=O)O` [Glycine], the inhibitory constant (Ki) on LeuT [3] amounted to 322 µM.

In turn, `N[C@@H](Cc1ccc(O)cc1)C(=O)O` [Tyrosine] came in with a Ki on LeuT [3] of 9.04 ± 0.55 µM.

`CSCC[C@H](N)C(=O)O` [Methionine] had a Ki on LeuT [3] of 0.232 ± 0.021 µM. Further, at LeuT [4], the Kd worked out at 0.069 ± 0.008 µM.
